{
  "source": "patent US20200140826A1",
  "about": "“Maintenance and Expansion of Pancreatic Progenitor Cells” (AGENCY FOR SCIENCE, TECHNOLOGY AND RESEARCH, priority 2017, published 2020)",
  "test_system": "cPP cells",
  "experiment": "Omission of individual components from complete cPP culture medium on 3T3-J2 feeders (phase contrast, qRT-PCR)",
  "format": "cell-based, human",
  "description": "Gentle cell dissociation reagent (STEMCELL Technologies, 07174) was used to passage cPP cells as aggregates that were then seeded at a 1:6 split ratio onto a layer of 3T3-J2 feeders (0.5×10^6 to 1×10^6 cells/cm^2) in medium composed of advanced DMEM/F12 (Thermo Fisher Scientific, 21634010), 2 mM L-glutamine (Thermo Fisher Scientific, 25030), 100 U/mL penicillin/streptomycin (Thermo Fisher Scientific, 15140122), 1× N2 supplement (Thermo Fisher Scientific, 17502-048), 1× B27 supplement (Thermo Fisher Scientific, 17504-044), 30 nM dexamethasone (STEMCELL Technologies, 72092), 50 ng/mL EGF (R&D Systems, 236-EG-200), 50 ng/mL FGF10 (Source Bioscience, ABC144), 3 μM RA (Sigma, R2625), 10 μM SB431542 (Calbiochem, 616464), and 1 μM DAPT (Sigma, D5942). If plating single cPP cells, complete medium was supplemented with 10 μM Y27632 for the first 48 hr (Sigma, Y0503). Medium was completely replenished every 2-3 days.\nRNA was isolated from samples using an RNeasy mini kit (Qiagen, cat # 74104) and reverse transcribed to generate cDNA using a high-capacity reverse transcription kit and random hexamer primers (Applied Biosystems, 4368814,1 μg RNA per 20 μL reaction). Quantitative RT-PCR was carried out using SYBR Select Mastermix (Applied Biosystems, 4472908). Data were analyzed using the ΔΔCT method, and normalized to expression of the housekeeping gene TBP in each sample. […]",
  "data": [
    {"molecule": "FGF10: fibroblast growth factor 10, growth factor in the cPP culture medium (50 ng/mL) (protein, UniProt O15520 38-208, looked up) Fibroblast growth factor 10: QALGQDMVSPEATNSSSSSFSSPSSAGRHVRSYNHLQGDVRWRKLFSFTKYFLKIEKNGKVSGTKKENCPYSILEITSVEIGVVAVKAINSNYYLAMNKKGKLYGSKEFNNDCKLKERIEENGYNTYASFNWQHNGRQMYVALNGKGAPRRGQKTRRKNTSAHFLPMVVHS", "values": [
      {"measurement": "Effect of removing the component on cPP expansion, colony size and morphology", "setting": "component individually omitted from complete medium, cPP cells cultured 6 days on 3T3-J2 feeders", "result": "did not significantly affect colony size or morphology in the short term"},
      {"measurement": "Effect of removing the component on viability", "setting": "component removed from the culture media over multiple passages", "result": "noticeable loss of viability"}
    ]}
  ]
}
